Numbering of substitutions follows the chain as printed.
T1: FLAG-tagged cynomolgus Ang2 (cynomolgus, UniProt O15123 19-496 (human entry), limits assumed)
T1 construct: N-terminally FLAG-tagged, conditioned medium of HEK293T cells; also called cAng2; FLAG-cAng2
T1 chain: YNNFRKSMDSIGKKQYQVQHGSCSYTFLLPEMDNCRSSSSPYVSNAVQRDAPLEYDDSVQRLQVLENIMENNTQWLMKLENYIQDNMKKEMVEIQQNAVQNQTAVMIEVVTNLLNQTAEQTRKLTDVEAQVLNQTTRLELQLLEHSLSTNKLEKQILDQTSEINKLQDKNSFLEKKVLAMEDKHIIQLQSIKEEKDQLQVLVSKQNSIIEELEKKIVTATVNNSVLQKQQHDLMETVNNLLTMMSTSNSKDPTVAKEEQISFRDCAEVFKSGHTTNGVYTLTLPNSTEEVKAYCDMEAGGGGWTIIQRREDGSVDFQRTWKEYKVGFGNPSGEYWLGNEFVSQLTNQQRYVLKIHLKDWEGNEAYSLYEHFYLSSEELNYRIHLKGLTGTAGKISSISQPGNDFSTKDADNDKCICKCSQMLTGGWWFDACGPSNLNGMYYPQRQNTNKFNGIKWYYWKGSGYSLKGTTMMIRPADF

T2: FLAG-tagged mouse Ang2 (mouse, UniProt O35608 19-496)
T2 construct: N-terminally FLAG-tagged, conditioned medium of HEK293T cells; also called mAng2; FLAG-mAng2
T2 sequence: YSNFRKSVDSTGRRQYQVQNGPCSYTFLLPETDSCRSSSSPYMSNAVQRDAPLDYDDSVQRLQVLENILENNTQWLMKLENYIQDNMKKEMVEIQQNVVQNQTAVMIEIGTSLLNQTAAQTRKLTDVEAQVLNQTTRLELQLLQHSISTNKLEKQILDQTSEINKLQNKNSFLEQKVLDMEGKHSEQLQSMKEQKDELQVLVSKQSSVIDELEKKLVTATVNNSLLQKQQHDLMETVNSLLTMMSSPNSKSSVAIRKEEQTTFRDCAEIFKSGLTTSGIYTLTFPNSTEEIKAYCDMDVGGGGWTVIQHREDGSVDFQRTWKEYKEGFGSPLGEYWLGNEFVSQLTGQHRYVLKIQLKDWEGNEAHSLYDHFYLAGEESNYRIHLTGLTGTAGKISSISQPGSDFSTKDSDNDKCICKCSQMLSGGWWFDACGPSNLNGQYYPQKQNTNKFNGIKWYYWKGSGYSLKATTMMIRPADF

T3: N-terminally FLAG-tagged mouse Ang2 (HEK293T conditioned medium) (mouse, UniProt O35608 19-496)
T3 construct: may be a nucleotide entry; also called mAng2; FLAG-mAng2
T3 sequence: T2 sequence

T4: recombinant mouse Ang2-FLD (mouse, UniProt O35608 275-496, limits assumed)
T4 construct: domain: FLD
T4 sequence (looked up): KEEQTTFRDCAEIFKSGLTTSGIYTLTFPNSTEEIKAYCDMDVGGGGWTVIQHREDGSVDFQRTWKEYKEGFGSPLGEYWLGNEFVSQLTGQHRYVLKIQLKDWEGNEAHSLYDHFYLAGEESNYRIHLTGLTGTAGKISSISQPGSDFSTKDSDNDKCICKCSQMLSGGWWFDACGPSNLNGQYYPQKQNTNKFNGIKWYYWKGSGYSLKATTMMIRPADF

T5: recombinant human Ang2-FLD (human, UniProt O15123 275-496, limits assumed)
T5 construct: domain: FLD; not used
T5 sequence (looked up): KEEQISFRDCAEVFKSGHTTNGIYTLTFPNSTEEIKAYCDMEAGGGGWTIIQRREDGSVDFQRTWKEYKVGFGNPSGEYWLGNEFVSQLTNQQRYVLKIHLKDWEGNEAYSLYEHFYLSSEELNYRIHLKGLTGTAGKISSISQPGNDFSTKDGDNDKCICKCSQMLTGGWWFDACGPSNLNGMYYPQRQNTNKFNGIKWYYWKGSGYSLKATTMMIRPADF

T6: N-terminally FLAG-tagged cynomolgus Ang2 (HEK293T conditioned medium) (cynomolgus, UniProt O15123 19-496 (human entry), limits assumed)
T6 construct: may be a nucleotide entry; also called cAng2; FLAG-cAng2
T6 chain: T1 chain

B1: VHH 00932 (VHH, not shown: small tags and cut ends)
VHH: EVQLVESGGGLVQPGGSLRLSCAVSGITLDDYAIGWFRQAPGKEREGVSSIRDNGGSTYYADSVKGRFTISSDNSKNTVYLQMNSLRPEDTAVYYCAAVPAGRLRYGEQWYPIYEYDAWGQGTLVTVSS
notes: Cycle 3 variant of 28D10 on the 00908 backbone
B2: VHH 00933 (VHH, not shown: small tags and cut ends)
VHH: B1 VHH with V24A, S50A
notes: as for B1
B3: VHH 00935 (VHH, not shown: small tags and cut ends)
VHH: B1 VHH with V24A, S50A, D53S, N54S
notes: as for B1
B4: VHH 24B05 (VHH)
VHH: EVQLVESGGGLVQPGGSLRLSCAASGFTLDYYAIGWFRQAPGKEWEGVSCISSSDGSTYYADSVKGRFTISRDNAKNTVYLQMNSLKPEDTAVYYCATDSIVCGSYYGMDYWGKGTQVTVSS
notes: also called 024B05; not shown: C-terminal c-myc tag and His6 tag
B5: VHH 13A02 (VHH)
VHH: EVQLVESGGGLVQAGGSLRLSCAASGGTFSSYSMGWFRQAPGKEREFIAAINWNGDSTYYEDSVKGRFTVSRDNAKNTVYLQMNSLKPEDTAVYYCAATGWGRAYEQAYEYDVWGQGTQVTVSS
notes: also called 013A02; not shown: C-terminal c-myc tag and His6 tag
B6: VHH 11B07 (VHH)
VHH: EVQLVESGGGLVQVGDSLRLSCAASGRTFSTYLMVGWFRQAPGKEREFAAGIWSSGDTAYADSVRGRFTISRDNAKNTVYLQMNSLKTEDTAVYYCAGSYDGNYYIPGFYKDWGQGTQVTVSS
notes: also called 011B07; not shown: C-terminal c-myc tag and His6 tag
B7: VHH 37F02 (VHH, not shown: small tags and cut ends)
VHH: EVQLVESGGGLVQPGGSLRLSCAASGFALDYYAIGWFRQAPGKEREGVSCISSSDGITYYVDSVKGRFTISRDNAKNTVYLQMNSLKPEDTAVYYCATDSGGYIDYDCMGLGYDYWGQGTQVTVSS
notes: Parental llama VHH; also called 037F02
B8: VHH 00926 (VHH, not shown: small tags and cut ends)
VHH: B7 VHH with D55G, V61A, A75S, K87R, M109Q, Q121L
B9: VHH 00927 (VHH, not shown: small tags and cut ends)
VHH: B7 VHH with D55G, V61A, A75S, K87R, M109R, Q121L
B10: VHH 00931 (VHH, not shown: small tags and cut ends)
VHH: B7 VHH with D55G, V61A, A75S, K87R, D99E, M109S, Q121L
B11: VHH 00929 (VHH, not shown: small tags and cut ends)
VHH: B7 VHH with D55G, V61A, A75S, K87R, D99E, M109Q, Q121L
B12: VHH 00920 (VHH, not shown: small tags and cut ends)
VHH: B7 VHH with D55G, V61A, A75S, K87R, Q121L
B13: VHH 00930 (VHH, not shown: small tags and cut ends)
VHH: B7 VHH with D55G, V61A, A75S, K87R, D99E, M109R, Q121L

Target: T1, FLAG-tagged cynomolgus Ang2
Assay: competition ELISA: FLAG-cAng2 binding to coated cTie2-Fc
Experimental: (§1) In brief, 2 μg/mL of recombinant mouse Tie2-Fc or cyno Tie2-Fc is coated overnight at 4° C. in a 96-well MaxiSorp plate (Nunc, Wiesbaden, Germany). Coated wells are blocked with a 1% casein solution.

Binder	IC50
B1	0.054 nM
B2	0.071 nM
B3	0.069 nM

Target: T2, FLAG-tagged mouse Ang2
Assay: competition ELISA: FLAG-mAng2 binding to coated mTie2-Fc
Experimental: as §1

Binder	IC50
B1	0.038 nM
B2	0.062 nM
B3	0.078 nM

Target: T3, N-terminally FLAG-tagged mouse Ang2 …
Assay: competition ELISA, FLAG-mAng2 on coated mTie2-Fc
Experimental: as §1

Binder	IC50
B4	1.5 nM
B5	6.1 nM
B6	21 nM

Target: T2, FLAG-tagged mouse Ang2
Assay: competition ELISA: FLAG-mAng2 binding to coated mTie2-Fc
Remark: another data set of the same source
Experimental: as §1

Binder	IC50
B7	0.11 nM
B8	0.2 nM
B9	0.19 nM
B10	0.15 nM
B11	0.15 nM
B12	0.15 nM
B13	0.17 nM

Target: T3, N-terminally FLAG-tagged mouse Ang2 …
Assay: competition ELISA, periplasmic extract, FLAG-mAng2 on mTie2/Fc
Experimental: In brief, human Tie2/Fc chimera (R&D Systems, Minneapolis, Minn., USA) is biotinylated using N-hydroxysulfosuccinimide ester of biotin (Thermo Fisher Scientific, Rockford, Ill., USA). […] To this mixture, the Acceptor beads and 0.3 nM biotinylated human Tie2/Fc chimeras are added and further incubated for 2 hours at room temperature. Finally, streptavidin conjugated Donor beads (Perkin Elmer, Waltham, Mass., US) are added and the mixture is incubated for an additional 2 hours at room temperature. Assay buffer is PBS+0.03% Tween-20+0.1% BSA. Fluorescence is measured using the Envision Multilabel Plate reader (Perkin Elmer, Waltham, Mass., USA) using an excitation wavelength of 680 nm and an emission wavelength of 520 nm. […] In brief, human or mouse Tie2/Fc chimera (R&D Systems, Minneapolis, Minn., USA) are immobilized at 2 μg/mL overnight at 4° C. in a 96-well MaxiSorp plate (Nunc, Wiesbaden, Germany). Wells are blocked with a 1% casein solution. […] This mixture is added to the Tie2/Fc coated well and incubated for 2 hours at room temperature. Residual binding of Ang is detected using HRP-conjugated anti-FLAG M2 antibody (Sigma, St Louis, Mo., USA).

Binder	% inh
B4	98%
B5	97%

Target: T3, N-terminally FLAG-tagged mouse Ang2 …
Assay: competition ELISA, FLAG-mAng2 on coated mTie2-Fc
Remark: another data set of the same source
Experimental: as §1

Binder	IC50
B4	1.1 nM
B5	26.6 nM
B6	39.7 nM

Target: T2, FLAG-tagged mouse Ang2
Assay: competition ELISA: FLAG-mAng2 binding to coated mTie2-Fc
Remark: another data set of the same source
Experimental: as §1

Binder	IC50
B7	0.11 nM

Target: T7, recombinant cynomolgus Ang2-FLD (cynomolgus)
T7 construct: domain: FLD; also called cyno Ang2-FLD
Assay: SPR (Biacore T100), binder on CM5 chip, Ang2-FLD as analyte
Experimental: (§2) In brief, VHH and benchmark compounds are immobilized on a CM5 chip via amine coupling. […] Ang2-FLD species are allowed to associate for 2 min and to dissociate for 20 min at a flow rate of 45 μL/min. In between injections, the surfaces are regenerated with a 10 sec pulse of 25 mM NaOH and 60 sec stabilization period. Association/dissociation data are evaluated by fitting a 1:1 interaction model (Langmuir binding). The affinity constant KD is calculated from resulting association and dissociation rate constants kₐ and kd and are depicted in Table 8.

Binder	Kd	koff	kon
B4	0.59 nM	0.0024 s⁻¹	4.1e+06 M⁻¹ s⁻¹
B5	8.7 nM	0.094 s⁻¹	1.1e+07 M⁻¹ s⁻¹
B6	6.1 nM	0.073 s⁻¹	1.2e+07 M⁻¹ s⁻¹

Target: T4, recombinant mouse Ang2-FLD
Assay: as above
Experimental: as §2

Binder	Kd	koff	kon
B4	1.7 nM	0.0029 s⁻¹	1.7e+06 M⁻¹ s⁻¹
B5	18 nM	0.034 s⁻¹	1.9e+06 M⁻¹ s⁻¹
B6	29 nM	0.14 s⁻¹	4.8e+06 M⁻¹ s⁻¹

Target: T5, recombinant human Ang2-FLD
Assay: as above
Experimental: as §2

Binder	Kd	koff	kon
B4	0.96 nM	0.0025 s⁻¹	2.6e+06 M⁻¹ s⁻¹
B5	9.9 nM	0.091 s⁻¹	9.2e+06 M⁻¹ s⁻¹
B6	6.7 nM	0.062 s⁻¹	9.2e+06 M⁻¹ s⁻¹

Target: T1, FLAG-tagged cynomolgus Ang2
Assay: competition ELISA: FLAG-cAng2 binding to coated cTie2-Fc
Remark: another data set of the same source
Experimental: as §1

Binder	IC50
B7	0.15 nM

Target: T6, N-terminally FLAG-tagged cynomolgus …
Assay: competition ELISA, FLAG-cAng2 on coated cTie2-Fc
Experimental: as §1

Binder	IC50
B4	2.1 nM
B5	33.1 nM
B6	24.8 nM

Target: T1, FLAG-tagged cynomolgus Ang2
Assay: competition ELISA: FLAG-cAng2 binding to coated cTie2-Fc
Remark: another data set of the same source
Experimental: as §1

Binder	IC50
B7	0.15 nM
B8	0.29 nM
B9	0.33 nM
B10	0.29 nM
B11	0.25 nM
B12	0.23 nM
B13	0.31 nM

— patent US20230203146A1 (Boehringer Ingelheim, published 2023)
